{"source": "paper PMC6882888", "about": "“Two-tiered enforcement of high-fidelity DNA ligation”", "key": {"LIG1 E346A/E592A (EE/AA) [1]": {"biological_target": "T1, LIG1 E346A/E592A (EE/AA) (Homo sapiens, UniProt P18858 262-904, E346A;E592A)", "T1 sequence (P18858 262-904 E346A/E592A)": "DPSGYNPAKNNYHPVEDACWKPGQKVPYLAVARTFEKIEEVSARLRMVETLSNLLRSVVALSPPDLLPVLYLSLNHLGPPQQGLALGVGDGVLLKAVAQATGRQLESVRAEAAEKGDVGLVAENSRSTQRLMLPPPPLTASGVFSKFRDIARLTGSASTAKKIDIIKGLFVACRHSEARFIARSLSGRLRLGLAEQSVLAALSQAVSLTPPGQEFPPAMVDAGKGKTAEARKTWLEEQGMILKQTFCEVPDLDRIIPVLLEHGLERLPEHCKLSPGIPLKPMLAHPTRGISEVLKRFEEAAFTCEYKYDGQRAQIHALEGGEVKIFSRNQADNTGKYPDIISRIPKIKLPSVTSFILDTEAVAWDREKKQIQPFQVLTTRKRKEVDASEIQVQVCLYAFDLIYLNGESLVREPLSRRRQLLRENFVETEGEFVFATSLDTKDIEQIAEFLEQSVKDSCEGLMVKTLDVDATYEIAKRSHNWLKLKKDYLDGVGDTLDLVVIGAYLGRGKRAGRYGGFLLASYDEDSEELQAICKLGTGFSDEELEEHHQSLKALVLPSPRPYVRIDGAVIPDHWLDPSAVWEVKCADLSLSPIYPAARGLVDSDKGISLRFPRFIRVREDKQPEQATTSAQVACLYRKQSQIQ", "assay": "X-ray crystallography (2.20 A); 200 mM Mg2+ in cryoprotectant, 1 mM ATP; Crystals: complex in 150 mM NaCl, 20 mM Tris-Cl pH 7.5, 1 mM TCEP, 1 mM ATP mixed 1:1 with 100 mM MES pH 6, 100 mM lithium acetate, 15% PEG3350; ligation/trapping: 50 mM NaMOPS pH 7.5, 1 mM DTT, 0.05 mg/mL BSA, ionic strength 150 mM (NaCl), 37 C", "conditions": "protein: recombinant; tags: His-tag removed by TEV; nicked duplex, 11mer + 7mer on 18mer template, blunt ends"}, "LIG1 WT [2]": {"biological_target": "T2, LIG1 WT (Homo sapiens, UniProt P18858 262-904)", "T2 sequence (P18858 262-904)": "as the sequence (P18858 262-904 E346A/E592A) above, with A85E, A331E counted along it", "assay": "X-ray crystallography (2.05 A); 200 mM Mg2+ in cryoprotectant, 1 mM ATP; AMP-DNA intermediate; 4 Mg2+ sites; Crystals: complex in 150 mM NaCl, 20 mM Tris-Cl pH 7.5, 1 mM TCEP, 1 mM ATP mixed 1:1 with 100 mM MES pH 6, 100 mM lithium acetate, 15% PEG3350; ligation/trapping: 50 mM NaMOPS pH 7.5, 1 mM DTT, 0.05 mg/mL BSA, ionic strength 150 mM (NaCl), 37 C", "conditions": "protein: recombinant; tags: His-tag removed by TEV; nicked duplex, 11mer + 7mer on 18mer template, blunt ends"}, "LIG1 E346A/E592A (EE/AA) [3]": {"biological_target": "T1, LIG1 E346A/E592A (EE/AA)", "assay": "X-ray crystallography (1.75 A); 2 mM EDTA in cryoprotectant, 1 mM ATP; 5'-adenylylated; Crystals: complex in 150 mM NaCl, 20 mM Tris-Cl pH 7.5, 1 mM TCEP, 1 mM ATP mixed 1:1 with 100 mM MES pH 6, 100 mM lithium acetate, 15% PEG3350; ligation/trapping: 50 mM NaMOPS pH 7.5, 1 mM DTT, 0.05 mg/mL BSA, ionic strength 150 mM (NaCl), 37 C", "conditions": "protein: recombinant; tags: His-tag removed by TEV; nicked duplex, 11mer + 7mer on 18mer template, blunt ends"}, "LIG1 WT [4]": {"biological_target": "T2, LIG1 WT", "assay": "X-ray crystallography (1.55 A); 2 mM EDTA in cryoprotectant, 1 mM ATP; Crystals: complex in 150 mM NaCl, 20 mM Tris-Cl pH 7.5, 1 mM TCEP, 1 mM ATP mixed 1:1 with 100 mM MES pH 6, 100 mM lithium acetate, 15% PEG3350; ligation/trapping: 50 mM NaMOPS pH 7.5, 1 mM DTT, 0.05 mg/mL BSA, ionic strength 150 mM (NaCl), 37 C", "conditions": "protein: recombinant; tags: His-tag removed by TEV; nicked duplex, 11mer + 7mer on 18mer template, blunt ends"}, "LIG1 E592R": {"biological_target": "LIG1 E592R (Homo sapiens, UniProt P18858 262-904, E592R)", "sequence (P18858 262-904 E592R)": "as the sequence (P18858 262-904 E346A/E592A) above, with A85E, A331R counted along it", "assay": "X-ray crystallography (1.85 A); 2 mM EDTA in cryoprotectant, 1 mM ATP; Crystals: complex in 150 mM NaCl, 20 mM Tris-Cl pH 7.5, 1 mM TCEP, 1 mM ATP mixed 1:1 with 100 mM MES pH 6, 100 mM lithium acetate, 15% PEG3350; ligation/trapping: 50 mM NaMOPS pH 7.5, 1 mM DTT, 0.05 mg/mL BSA, ionic strength 150 mM (NaCl), 37 C", "conditions": "protein: recombinant; tags: His-tag removed by TEV; nicked duplex, 11mer + 7mer on 18mer template, blunt ends"}, "LIG1 E346A/E592A (EE/AA) [5]": {"biological_target": "T1, LIG1 E346A/E592A (EE/AA)", "assay": "X-ray crystallography (1.85 A); 2 mM EDTA in cryoprotectant, 1 mM ATP; 5'-adenylylated; Crystals: complex in 150 mM NaCl, 20 mM Tris-Cl pH 7.5, 1 mM TCEP, 1 mM ATP mixed 1:1 with 100 mM MES pH 6, 100 mM lithium acetate, 15% PEG3350; ligation/trapping: 50 mM NaMOPS pH 7.5, 1 mM DTT, 0.05 mg/mL BSA, ionic strength 150 mM (NaCl), 37 C", "conditions": "protein: recombinant; tags: His-tag removed by TEV; nicked duplex, 11mer + 7mer on 18mer template, blunt ends, 8oxoG:A Hoogsteen pair at nick"}}, "data": [{"binder": "nicked 18mer 3'ddC (oligos 1,2,3) (dsDNA, 3'-terminal C of 11mer is ddC; 5' phosphate on 7mer, 5'-adenylylated in the complex) DNA 1: GTCCGACGACGCATCAGC DNA 2: GCTGATGCGTC DNA 3: GTCGGAC", "values": [{"measurement": "binding result", "setting": "LIG1 E346A/E592A (EE/AA) [1]", "result": "binds"}, {"measurement": "binding result", "setting": "LIG1 WT [2]", "result": "binds"}]}, {"binder": "nicked 18mer 3'OH (oligos 1,3,4) (dsDNA, 5' phosphate on 7mer, 5'-adenylylated in the crystal) DNA 1: GTCCGACGACGCATCAGC DNA 2: GCTGATGCGTC DNA 3: GTCGGAC", "values": [{"measurement": "binding result", "setting": "LIG1 E346A/E592A (EE/AA) [3]", "result": "binds"}, {"measurement": "binding result", "setting": "LIG1 WT [4]", "result": "binds"}, {"measurement": "binding result", "setting": "LIG1 E592R", "result": "binds"}]}, {"binder": "nicked 18mer 3'-8oxoG:A (oligos 3,5,6) (dsDNA, 3'-terminal G of 11mer is 8oxoG (opposite A); 5' phosphate on 7mer, 5'-adenylylated in the crystal) DNA 1: GTCCGACAACGCATCAGC DNA 2: GCTGATGCGTG DNA 3: GTCGGAC", "values": [{"measurement": "binding result", "setting": "LIG1 E346A/E592A (EE/AA) [5]", "result": "binds"}]}]}
